# US10801046B2, “Methods and materials for biosynthesizing multifunctional, multivariate molecules via carbon chain modification” (INVISTA NORTH AMERICA S.A.R.L., priority 2016, dated 2020)
# B1: SEQ ID NO: 77: Spirochaeta smaragdinae thioesterase (protein, listed as Sediminispirochaeta smaragdinae)
# chain: MKQVSRYTTEHTVMYSETDARGVLSLPSFFALFQEAALLHAEELGFGETYSKQENLMWVLSRLLLEIDAFPKHRDRIRLSTWPKQPQGPFAIRDYILESEEGTVCARATSSWLLLKLDTMRPIRPQTIFANLSMEGIGLAVEGTAPKISEIDNDSKQEMEVTARYSDLDQNNHVNNTRYVRWFLDCYTPEEITTSGNLHFAINYLQAASYSDKLLLRRYDTESDSSVYGYLEDGTPSFSARIERKSD
# modifications: Sediminispirochaeta smaragdinae (strain DSM 11293 / JCM 15392 / SEBR 4228)
# notes: Spirochaeta smaragdinae thioesterase
# B2: SEQ ID NO: 122: Mesorhizobium sp. LC103 aminotransferase (protein)
# chain: MLDKPPLSNLQARDVASVLHPYTPLHKLETMGPLVIERGEGVYVYDTQGKAYIEGMSGLWCAGLGFGDEEMIDAATEQLRTLPYYHLFGAKGTESAIELAEKLKEIAPVPISKVFFTSSGSEANDTQVKLAWYLNNALGRPNKKKIISRQKAYHGVTIMSASLTGLPYNHIGWDLPVDRVLHTDCPHYYRFGQEGESEAEFVNRMVKSLRDLIEREGPDTIAAMIAEPVMGAGGVIVPPEGYYPAIQAVLDEHDIIMISDEVINGFGRTGNWWGSQTLGMTPKTISAAKQMTSAYAPLGAVMVPEDIYQAYVSHSEKIGTFGHGFTYGGHPLGCALGVKAIEIYQKRDILGHVRSLSPQFERRMRKLTEHPLVGEARYCGLVGGVEIVADKKTKRPFDPKVGVGPQCAKFVEERGAILRAIGDTIALCPPMIIKEDELDELFDRLEKALDDTEAWVAKEGLRAL
# modifications: Mesorhizobium sp. LC103
# notes: Mesorhizobium sp; LC103 aminotransferase
# B3: SEQ ID NO: 79: Thermincola potens thioesterase (protein)
# chain: MEPYQTSIPVHYYEINNHRQASPVAILNYLEEAAIRHSESVGWGIEKLLANSRGWLLTRWSLHMQKYPQWGETVNIETWPYKFERFYATREFRISDREGRVLGAATTLWVFFDLRRKRPVRIPPDIYDAYGTGAERMVADEFADLPVVDEPEIKLEFRVRLSDIDTNDHVNNTKYVEWLLETVPLSVHNGFLLSSVEIAYKKETSYGSTVLCGIKETEAGERQTTFLHIILDKDSGTELARARTVWQKRSKI
# modifications: Thermincola potens (strain JR)
# B4: FatB2: plant thioesterase FatB2 from Cuphea hookeriana, fatty acid acyl-ACP thioesterase, positive control (protein, listed as Cuphea hookeriana)
# chain: MVAAAASSAFFPVPAPGASPKPGKFGNWPSSLSPSFKPKSIPNGGFQVKANDSAHPKANGSAVSLKSGSLNTQEDTSSSPPPRTFLHQLPDWSRLLTAITTVFVKSKRPDMHDRKSKRPDMLVDSFGLESTVQDGLVFRQSFSIRSYEIGTDRTASIETLMNHLQETSLNHCKSTGILLDGFGRTLEMCKRDLIWVVIKMQIKVNRYPAWGDTVEINTRFSRLGKIGMGRDWLISDCNTGEILVRATSAYAMMNQKTRRLSKLPYEVHQEIVPLFVDSPVIEDSDLKVHKFKVKTGDSIQKGLTPGWNDLDVNQHVSNVKYIGWILESMPTEVLETQELCSLALEYRRECGRDSVLESVTAMDPSKVGVRSQYQHLLRLEDGTAIVNGATEWRPKNAGANGAISTGKTSNGNSVS
# B5: SEQ ID NO: 58: Spongiibacter sp. IMCC21906 thioesterase (protein)
# chain: MTHFIQFLPGRISPRRALALLLVLLLQGALPRIVLADTILLLGDSLSAAYKIPVESSWPALLQDSIDEEHSLKNASVSGETTAGGLARLPALLAKNNTDILIIELGGNDGLRGYPLVRIRENIEKMIKLGQKKGAKVVLLGMHIPPNYGRRYADGFHNIYLSLAEENNTALLPFLLDGVAKQPRLMQGDGIHPTAEAQPIILQNVLSVLRPLLDSTN
# modifications: Spongiibacter sp. IMCC21906
# notes: Spongiibacter sp; IMCC21906 thioesterase
# B6: SEQ ID NO: 80: Clostridium sp. CAG:306 thioesterase (protein)
# chain: MLFTKEYEIKYYEQNVNGDLKESALLNFLQDIATLSAESLGFGPSFVFANNYAWVVLKYHIELFAPLRNLSSIVIKTEPRGIAKLYAYRDFELYTKDGQCIGKAVSTWVLIDICTRKLLNTQKILADFMAPYQKRETDLVYEKIDSPDELMYQEVFDVRFDDIDVNRHANNSNYIVWALETLPVDFRLKHSPKTIDIKYKKEIGINSRVLSEAQQILTDGNVQTLHVIKDEQNAQDLTSLKIVWQ
# modifications: Clostridium sp. CAG:306
# notes: Clostridium sp; CAG:306 thioesterase
# B7: SEQ ID NO: 102: Peptoniphilus harei ACS-146-V-Sch2b thioesterase (protein)
# chain: MKIFCKEYEVMNFLSSDGDLKLNHLVSYLIETSNYQSIDLGLSNEKLLDMGYTWMIYKWKIKINRYPRSYEKIKIKTWASGFKNINAFREFEVYCQGEKIIEASAIFLLIDVEKRKAIKIPEVLAEIYGNNGNRIFKSIERVNEPSELEIANRFSYKILRRDLDFNNHVNNSVYLELIYEAVTDEYTHVKFKDINVNYINELKLGDEIVIDFYREEDRFYFFFKSKDQSQIYARICGVSETPIS
# modifications: Peptoniphilus harei ACS-146-V-Sch2b
# notes: Peptoniphilus harei ACS-146-V-Sch2b thioesterase
# B8: SEQ ID NO: 72: Terrisporobacter othiniensis thioesterase (protein, listed as Terrisporobacter othiniensis)
# chain: MERVFTKEYEVTYRDTDARGECFLTSYMNFMADCGLSQDEKYGFVIADMVKENHTWMLVDYEITIYKYVKYKEKLRAITYIEGMNKFYAVRYFKIYNDKDDLILEGKTLVILVDSKKRRPLSIPDEHYKAYGVEEKTPTIGRNKLKLSKCKNVDYKKEFNVRYSDIDLNLHVGNVTYLGWILETIPFEIMTDYKIYSVKIKYQKELTYGDKVSVKTEMEYNDNNISAYHEIINESEEVVALLETHWNEI
# B9: SEQ ID NO: 68: Agathobacter rectalis DSM 17629 thioesterase (protein)
# chain: MAFSFDSRIRYSEVDSSCRLSLTGLTNYFQDCSVFHSQSHDVGIRFLADNHIAWVLSSWQICINRLPLLNEQVKISTWAYGMKAFYGYRNFTLEDAGGSTLAYANSVWVLVDTRTGRPVKVPQEFADTYGLEPQLEMECAKRKLHIPDDMEKKGEIEVPQFFIDSNHHMNNEKYVMLAQQLLPNDFEISELRVEYRKEAKLGDTVISYVKYTSKSVTVVLADTDKKPYSVVEFLSKPVPGK
# modifications: Eubacterium rectale DSM 17629
# notes: Agathobacter rectalis DSM 17629 thioesterase
# B10: SEQ ID NO: 78: Opitutus terrae thioesterase (protein)
# chain: MPEKLTLNASVLYADVDRTEVLLLRGVFKFLQEAAITHANQFDLGSRAMATRGESWVLNRMAVAVHRYPRYEETMRIETWSRGIKGFKGYREFRVFDAQGAPLFSGSSLWLYVNMRTKSIIRVPAELAAEFPKRDDGAFFPELESLEFAPPAADARRVPIAIRYSDVDVNAHVNNTAYLDFLQEALARAGLSPRPQSIRIKYARAIPAEAETVRVAIEPRGTGAAFAIEDHDTIFAIGEVD
# modifications: Opitutus terrae (strain DSM 11246 / JCM 15787 / PB90-1)
# notes: Opitutus terrae thioesterase
# B11: SEQ ID NO: 74: Cellulosilyticum lentocellum thioesterase (protein, listed as Cellulosilyticum lentocellum)
# chain: MSRLKENYQVDFDVVDFTGKLSINGLCSYMQTVAAKHATKLGINFYKNGEKPTYYWILSRVKYEIDTYPRWEDLVSLETYPGGYEKLFAVRLFDLTDEKGELIGRITGDYLLMDAEKGRPVRIKGATGPLSVLDFPYEGRKIDKIEVPEVVLREQIRKAYYSELDLNGHMNNAHYIRWTVDMLPLEVLKENEIVSLQINYNASITYGVETKLIIGKNEAGNYLVAGNSLDDSVNYFTSEIILRKNK
# modifications: Cellulosilyticum lentocellum (strain ATCC 49066 / DSM 5427 / NCIMB 11756 / RHM5)
# notes: Cellulosilyticum lentocellum thioesterase
# B12: SEQ ID NO: 81: Citrobacter rodentium thioesterase (protein)
# chain: MVNFNNVFRWHLPFLFLILFTCRSVAADTLLILGDSLSAGYRMSASAAWPALLNDKWHSKTTIVNASISGDTSGQALARLPALLKQHQPRWVLVELGGNDGLRGFSPAQTEQTLRTILQNVKAASAEPLLMQIRLPANYGRRYNETFSAIYPKLASEFDIPLLPFFMEEVYLKPQWMQDDGIHPNRDAQPFIADWMAKQLSPLVKYES
# modifications: Citrobacter rodentium (strain ICC168)
# notes: Citrobacter rodentium thioesterase
# What was measured:
# [1] = system: heptanedioyl-ACP methyl ester; format: cell-based, Escherichia coli; conditions: for activity toward heptanedioyl-ACP methyl ester in vivo: top 150 hits screened in vivo; for monomethyl heptanedioate production: bioH deletion strain, TB supplemented with 1 mM IPTG and 2 mM L-rhamnose; for impact on monomethyl heptanedioate production: 146 thioesterases screened
# [2] = In vivo aminotransferase activity screening, 7-aminoheptanoate by LC-MS; format: cell-based, Escherichia coli; conditions: in vivo conversion of 7-oxoheptanoate to 7-aminoheptanoate, 120 aminotransferases screened
# Description: A 165-member aminotransferase library from Twist on IPTG-inducible T7- pUC expression vectors was co-transformed into T7 Express lysY/Iq with a constitutive expression pJ23150-derived plasmid bearing the phosphopantetheinyl transferase sfp from Bacillus subtilis, CAR_Srot from Invista and BioC from Serratia marcescens (UniprotKB Accession No. P36571 (SEQ ID NO: 165)). The resulting strains were incubated in 0.5 ml of rich media (terrific broth or LB containing 8% glycerol) supplemented with 0.4 mM IPTG and received 1 g/L monomethyl heptanedioate, 1 g/L heptanedioate, or no organic acid addition, depending on the experiment. Following incubation overnight at 37° C. in a shaking incubator, cells were pelleted and the supernatants were analyzed using LC-MS for 7-aminoheptanoate or monomethyl 7-aminoheptanoate. A Vibrio fluvialis aminotransferase (UniProtKB Accession No. F2XBU9 (SEQ ID NO: 128)) was used as a positive control.
Molecule,activity toward heptanedioyl-ACP methyl ester in vivo [1],further results
B1,showed activity toward heptanedioyl-ACP methyl ester,–
B2,–,7-aminoheptanoate yield compared to the positive control (F2XBU9) [2]: higher 7-aminoheptanoate yields
B3,showed activity toward heptanedioyl-ACP methyl ester,–
B4,–,monomethyl heptanedioate production higher than the negative control [1]: about 10 mg/L; monomethyl heptanedioate production [1]: approximately 14 mg/L
B5,showed activity toward heptanedioyl-ACP methyl ester,–
B6,showed activity toward heptanedioyl-ACP methyl ester,–
B7,showed activity toward heptanedioyl-ACP methyl ester,impact on monomethyl heptanedioate production [1]: promising
B8,showed activity toward heptanedioyl-ACP methyl ester,impact on monomethyl heptanedioate production [1]: promising; monomethyl heptanedioate production [1]: 48 mg/L
B9,showed activity toward heptanedioyl-ACP methyl ester,–
B10,showed activity toward heptanedioyl-ACP methyl ester,–
B11,showed activity toward heptanedioyl-ACP methyl ester,impact on monomethyl heptanedioate production [1]: promising
B12,showed activity toward heptanedioyl-ACP methyl ester,–
